Here are results for 5 substances from patent publication US20200179316A1.

This assay has as its target Sec23a/Sec24d (full-length, wild type) (H. sapiens) (UniProt Q15436). Put plainly: cell-based or functional assay. As to conditions: scale: % of protein present in starting permeabilized cells.

Sequence of Sec23a/Sec24d (full-length, wild type) (H. sapiens) (Q15436 whole entry, chain 1 of 2): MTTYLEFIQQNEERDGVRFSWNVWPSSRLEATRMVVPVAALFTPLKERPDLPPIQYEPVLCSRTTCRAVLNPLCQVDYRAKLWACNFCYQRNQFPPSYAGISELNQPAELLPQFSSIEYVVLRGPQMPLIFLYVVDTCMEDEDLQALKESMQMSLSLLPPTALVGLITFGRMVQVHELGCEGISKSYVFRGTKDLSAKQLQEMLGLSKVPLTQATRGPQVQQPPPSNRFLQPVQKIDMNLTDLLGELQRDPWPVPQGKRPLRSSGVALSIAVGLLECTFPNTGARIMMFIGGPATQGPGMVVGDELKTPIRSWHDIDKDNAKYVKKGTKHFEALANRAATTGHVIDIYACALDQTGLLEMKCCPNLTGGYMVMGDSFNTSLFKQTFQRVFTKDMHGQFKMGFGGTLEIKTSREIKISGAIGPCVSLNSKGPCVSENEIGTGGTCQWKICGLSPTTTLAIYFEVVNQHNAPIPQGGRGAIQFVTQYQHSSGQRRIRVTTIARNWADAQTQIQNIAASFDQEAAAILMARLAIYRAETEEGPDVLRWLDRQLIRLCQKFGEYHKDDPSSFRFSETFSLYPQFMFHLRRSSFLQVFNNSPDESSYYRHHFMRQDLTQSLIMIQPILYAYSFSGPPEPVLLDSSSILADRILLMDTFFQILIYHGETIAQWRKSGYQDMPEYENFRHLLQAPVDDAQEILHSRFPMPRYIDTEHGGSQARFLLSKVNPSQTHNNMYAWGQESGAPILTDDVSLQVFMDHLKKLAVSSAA
Sequence of Sec23a/Sec24d (full-length, wild type) (H. sapiens) (O94855 other isoform, or with tags, fused parts or gaps, chain 2 of 2, further chain): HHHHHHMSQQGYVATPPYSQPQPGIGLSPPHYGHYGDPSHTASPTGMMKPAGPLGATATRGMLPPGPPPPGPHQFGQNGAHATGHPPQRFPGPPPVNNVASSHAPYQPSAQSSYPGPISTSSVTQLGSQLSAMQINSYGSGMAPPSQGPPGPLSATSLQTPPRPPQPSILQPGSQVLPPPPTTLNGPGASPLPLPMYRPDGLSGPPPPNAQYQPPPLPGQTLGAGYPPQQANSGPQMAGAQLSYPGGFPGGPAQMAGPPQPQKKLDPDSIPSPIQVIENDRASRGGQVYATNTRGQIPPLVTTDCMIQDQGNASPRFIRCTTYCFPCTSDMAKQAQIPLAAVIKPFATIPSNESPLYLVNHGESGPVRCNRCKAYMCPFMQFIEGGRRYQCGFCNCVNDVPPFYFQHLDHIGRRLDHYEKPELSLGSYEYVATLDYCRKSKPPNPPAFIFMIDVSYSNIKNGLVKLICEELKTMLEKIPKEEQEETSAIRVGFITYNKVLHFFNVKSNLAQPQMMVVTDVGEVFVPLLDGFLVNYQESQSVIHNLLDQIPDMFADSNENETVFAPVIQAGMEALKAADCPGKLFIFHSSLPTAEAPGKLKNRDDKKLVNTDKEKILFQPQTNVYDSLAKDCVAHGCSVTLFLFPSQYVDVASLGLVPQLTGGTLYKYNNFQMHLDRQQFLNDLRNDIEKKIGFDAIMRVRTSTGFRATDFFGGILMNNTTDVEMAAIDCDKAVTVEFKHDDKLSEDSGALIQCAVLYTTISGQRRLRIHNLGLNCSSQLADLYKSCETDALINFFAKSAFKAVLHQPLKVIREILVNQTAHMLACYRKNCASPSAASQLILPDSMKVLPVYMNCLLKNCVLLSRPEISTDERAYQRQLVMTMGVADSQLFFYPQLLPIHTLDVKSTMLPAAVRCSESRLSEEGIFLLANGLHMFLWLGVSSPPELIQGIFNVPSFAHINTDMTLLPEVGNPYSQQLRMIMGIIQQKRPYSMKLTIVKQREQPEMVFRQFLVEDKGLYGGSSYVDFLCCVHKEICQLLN

Substance ERGIC-53 gave a packaging efficiency with wild-type COPII, CHO-LDLRG544V cells of 4.5.

The substance p24α2 had a packaging efficiency with wild-type COPII, CHO-LDLRG544V cells of 8.7 and a packaging efficiency with wild-type COPII, wild-type CHO cells of 10.9.

The substance p24α3 came in with a packaging efficiency with wild-type COPII, CHO-LDLRG544V cells of 6.4 and a packaging efficiency with wild-type COPII, wild-type CHO cells of 6.4.

For the substance p24β1, the packaging efficiency with wild-type COPII, CHO-LDLRG544V cells is 10.6.

As to p24δ1, the packaging efficiency with wild-type COPII, CHO-LDLRG544V cells came out at 7.7 and the packaging efficiency with wild-type COPII, wild-type CHO cells stood at 4.6.
